Source: patent US20260242478A1 (published 2026)
Where no end group is shown, it is not given here.

Legend:
[1] = target: T1, Anti-PSMA Fab (SEQ ID NOs: 19, 20); assay: phage binding ELISA; biotinylated PSMA Fab on neutravidin plates, clonal phage supernatant, anti-M13 HRP detection
T1 construct: Biotinylated and captured on neutravidin coated plates in the phage ELISA; also called 006 PSMA Fab
Experimental: (§1) Clonal phage were harvested as crude supernatants and screened via standard ELISAs. […] Prior to the addition of clonal phage. wells were incubated with blocking buffer and PSMA antigen or blocking buffer alone. Without washing or aspirating, clonal phage supernatants were then added to the wells and incubated for a short time. Wells were then washed followed by detection of bound phage using a horse radish conjugated anti-M13 antibody.

[2] = target: T1, Anti-PSMA Fab (SEQ ID NOs: 19, 20); assay: phage binding ELISA; Fab-coated wells pre-incubated with PSMA antigen as competitor, anti-M13 HRP detection
Experimental: as §1

[3] = target: T2, Anti-PSMA Fab (SEQ ID NOs: 19, 20); assay: phage binding ELISA; biotinylated PSMA Fab on neutravidin plate, bound phage detected with anti-M13-HRP
T2 construct: Biotinylated and captured on neutravidin coated plates in the phage ELISA; also called 006 PSMA Fab
Experimental: as §1

[4] = target: T2, Anti-PSMA Fab (SEQ ID NOs: 19, 20); assay: phage binding ELISA; PSMA Fab on plate pre-incubated with PSMA antigen as competitor, anti-M13-HRP detection
Experimental: as §1

[5] = target: T3, Anti-PSMA Fab (SEQ ID NOs: 19, 20); assay: phage binding ELISA; biotinylated PSMA Fab on neutravidin plate, clonal phage, anti-M13-HRP detection
T3 construct: Biotinylated PSMA Fab captured on neutravidin coated plates in the phage ELISA; also called 006 PSMA Fab
Experimental: as §1

[6] = target: T3, Anti-PSMA Fab (SEQ ID NOs: 19, 20); assay: phage binding ELISA; Fab-coated wells pre-incubated with PSMA antigen as competitor, anti-M13-HRP detection;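 further: clonal phage supernatants screened, with reference wells given blocking buffer only (no PSMA antigen) before phage were added for a brief incubation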
Experimental: as §1

[7] = target: T4, Anti-PSMA Fab (SEQ ID NOs: 19, 20); assay: phage ELISA on captured PSMA Fab, wells pre-incubated with the competitor PSMA antigen
T4 construct: Biotinylated PSMA Fab captured on neutravidin coated plates in the phage ELISA; also called 006 PSMA Fab
Experimental: as §1

[8] = target: T4, Anti-PSMA Fab (SEQ ID NOs: 19, 20); assay: phage ELISA; biotinylated PSMA Fab on neutravidin plate, bound phage detected with anti-M13-HRP;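 further: crude clonal phage supernatants added, without a wash, to wells pretreated with PSMA antigen in blocking buffer or with blocking buffer only, then briefly incubated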
Experimental: as §1

Binder | Anti-PSMA Fab signal [1] | Anti-PSMA Fab signal in the presence of PSMA [2] | Anti-PSMA Fab (SEQ ID NOs: 19, 20) signal [3] | Anti-PSMA Fab signal in the presence of PSMA [4] | further results
VDKWCIPQWMCDDQ (tested as clonal phage supernatant) [Phage-2054] | 1.77 | 0.116 | – | – | –
FEKWCIPSWMCENA [Phage-2030] | – | – | 1.81 | 0.0725 | –
MERWCKPAWMCADM (cysteine pairing not given here; also: fused to phage pIII, pIII sequence and linker not given here) [Phage-2038] | – | – | 1.8 | 0.0809 | –
ALMWCIPQWMCQDQ (Peptide-180 library clone, tested as clonal phage supernatant) [Phage-2023] | – | – | – | – | Anti-PSMA Fab (SEQ ID NOs: 19, 20) signal [5]: 1.82; Anti-PSMA Fab signal in the presence of PSMA [6]: 0.102
VPKWCTPAWMCNWN (tested as clonal phage supernatant) [Phage-2051] | 1.78 | 0.12 | – | – | –
YLHSCTPAWMCTGF (tested as crude clonal phage supernatant) [Phage-2064] | – | – | – | – | Anti-PSMA Fab signal in the presence of PSMA (phage binding ELISA) [7]: 0.0668; Anti-PSMA Fab signal (phage binding ELISA) [8]: 1.77
EMKWCIPAWMCQSH (tested as crude clonal phage supernatant) [Phage-2061] | – | – | – | – | Anti-PSMA Fab signal in the presence of PSMA (phage binding ELISA) [7]: 0.0858; Anti-PSMA Fab signal (phage binding ELISA) [8]: 1.77
WLNWCTPEWMCNGF (tested as clonal phage supernatant) [Phage-2056] | 1.77 | 0.147 | – | – | –
VHKWCIPSWMCEAP [Phage-2040] | – | – | 1.79 | 0.0914 | –
FPQWCIPIWMCEHT (tested as clonal phage supernatant) [Phage-2052] | 1.78 | 0.065 | – | – | –
EAIWCVPKWMCEGM (tested as clonal phage supernatant) [Phage-2050] | 1.78 | 0.0786 | – | – | –
VQKWCIPAWMCDYV (Peptide-180 library clone, tested as clonal phage supernatant) [Phage-2024] | – | – | – | – | Anti-PSMA Fab (SEQ ID NOs: 19, 20) signal [5]: 1.82; Anti-PSMA Fab signal in the presence of PSMA [6]: 0.0734
EVHRCIPAWMCTTP (tested as clonal phage supernatant) [Phage-2046] | 1.79 | 0.0934 | – | – | –
QMKWCTPEWMCVGM [Phage-2041] | – | – | 1.79 | 0.0767 | –
IDKWCIPMWMCEMS (tested as clonal phage supernatant) [Phage-2045] | 1.79 | 0.0708 | – | – | –
VAKWCTPPWMCAWL (cysteine pairing not given here; also: fused to phage pIII, pIII sequence and linker not given here, tested as clonal phage supernatant) [Phage-2048] | 1.78 | 0.197 | – | – | –
EGKWCIPPWMCERN [Phage-2029] | – | – | 1.81 | 0.0762 | –
IVKWCTPEWMCVGF [Phage-2034] | – | – | 1.8 | 0.154 | –
DIKWCIPPWMCQVE [Phage-2032] | – | – | 1.81 | 0.0691 | –
MDHWCTPPWMCEGW (tested as clonal phage supernatant) [Phage-2042] | 1.79 | 0.0642 | – | – | –
VPKWCTPSWMCEST (tested as clonal phage supernatant) [Phage-2043] | 1.79 | 0.0787 | – | – | –
ASPMCIPEWMCSGV [Phage-2037] | – | – | 1.8 | 0.0687 | –

Binder | Anti-PSMA Fab signal [1] | Anti-PSMA Fab signal in the presence of PSMA [2] | Anti-PSMA Fab (SEQ ID NOs: 19, 20) signal [3] | Anti-PSMA Fab signal in the presence of PSMA [4] | further results
VVHWCIPEWMCERI (tested as clonal phage supernatant) [Phage-2053] | 1.78 | 0.098 | – | – | –
DLPWCIPAWMCMGL [Phage-2039] | – | – | 1.8 | 0.0665 | –
EHIWCKPDWMCSGF (tested as crude clonal phage supernatant) [Phage-2060] | – | – | – | – | Anti-PSMA Fab signal in the presence of PSMA (phage binding ELISA) [7]: 0.0871; Anti-PSMA Fab signal (phage binding ELISA) [8]: 1.77
ELKRCTPSWMCEGI (Peptide-180 library clone, tested as clonal phage supernatant) [Phage-2025] | – | – | – | – | Anti-PSMA Fab (SEQ ID NOs: 19, 20) signal [5]: 1.82; Anti-PSMA Fab signal in the presence of PSMA [6]: 0.059
VDHWCTPAWMCDGF (tested as clonal phage supernatant) [Phage-2047] | 1.78 | 0.106 | – | – | –
IIKWCIPEWMCYMH [Phage-2028] | – | – | 1.81 | 0.104 | –
VEKWCTPPWMCSLF (tested as crude clonal phage supernatant) [Phage-2057] | – | – | – | – | Anti-PSMA Fab signal in the presence of PSMA (phage binding ELISA) [7]: 0.1; Anti-PSMA Fab signal (phage binding ELISA) [8]: 1.77
VEKWCIPSWMCAEV (cysteine pairing not given here; also: fused to phage pIII, pIII sequence and linker not given here) [Phage-2031] | – | – | 1.81 | 0.086 | –
WPMLCIPEWMCDGL [Phage-2033] | – | – | 1.8 | 0.0977 | –
ELQRCTPWWMCFDV [Phage-2027] | – | – | 1.81 | 0.0689 | –
EVKWCTPEWMCAFL (cysteine pairing not given here; also: fused to phage pIII, pIII sequence and linker not given here, tested as clonal phage supernatant) [Phage-2044] | 1.79 | 0.0578 | – | – | –
PIKLCTPSWMCIGF (tested as crude clonal phage supernatant) [Phage-2063] | – | – | – | – | Anti-PSMA Fab signal in the presence of PSMA (phage binding ELISA) [7]: 0.107; Anti-PSMA Fab signal (phage binding ELISA) [8]: 1.77
APKLCIPNWMCVSM (tested as clonal phage supernatant) [Phage-2055] | 1.77 | 0.0746 | – | – | –
QLNWCIPEWMCQGL (Peptide-180 library clone, tested as clonal phage supernatant) [Phage-2022] | – | – | – | – | Anti-PSMA Fab (SEQ ID NOs: 19, 20) signal [5]: 1.82; Anti-PSMA Fab signal in the presence of PSMA [6]: 0.124
LEKWCTPLWMCVGI (Peptide-180 library clone, tested as clonal phage supernatant) [Phage-2026] | – | – | – | – | Anti-PSMA Fab (SEQ ID NOs: 19, 20) signal [5]: 1.82; Anti-PSMA Fab signal in the presence of PSMA [6]: 0.078
DTMRCVPEWMCTGF (tested as crude clonal phage supernatant) [Phage-2059] | – | – | – | – | Anti-PSMA Fab signal in the presence of PSMA (phage binding ELISA) [7]: 0.066; Anti-PSMA Fab signal (phage binding ELISA) [8]: 1.77
AAKMCVPWWMCEVM (tested as crude clonal phage supernatant) [Phage-2065] | – | – | – | – | Anti-PSMA Fab signal in the presence of PSMA (phage binding ELISA) [7]: 0.0753; Anti-PSMA Fab signal (phage binding ELISA) [8]: 1.77
VMPWCIPQWMCVGE (tested as clonal phage supernatant) [Phage-2049] | 1.78 | 0.0873 | – | – | –
SLNWCIPEWMCEGF [Phage-2035] | – | – | 1.8 | 0.0793 | –
AWKSCIPSWMCEVQ (tested as crude clonal phage supernatant) [Phage-2058] | – | – | – | – | Anti-PSMA Fab signal in the presence of PSMA (phage binding ELISA) [7]: 0.0942; Anti-PSMA Fab signal (phage binding ELISA) [8]: 1.77
EAKWCIPAWMCEDA [Phage-2036] | – | – | 1.8 | 0.0685 | –
EGKWCTPIWMCQGF (tested as crude clonal phage supernatant) [Phage-2062] | – | – | – | – | Anti-PSMA Fab signal in the presence of PSMA (phage binding ELISA) [7]: 0.143; Anti-PSMA Fab signal (phage binding ELISA) [8]: 1.77
